Assay results as given in patent US20240254227A1 (Alector, published 2024).

T1: human CD300F-Fc (human)
T1 construct: hIgG1-Fc fusion; the entry is the whole fusion chain
T1 chain: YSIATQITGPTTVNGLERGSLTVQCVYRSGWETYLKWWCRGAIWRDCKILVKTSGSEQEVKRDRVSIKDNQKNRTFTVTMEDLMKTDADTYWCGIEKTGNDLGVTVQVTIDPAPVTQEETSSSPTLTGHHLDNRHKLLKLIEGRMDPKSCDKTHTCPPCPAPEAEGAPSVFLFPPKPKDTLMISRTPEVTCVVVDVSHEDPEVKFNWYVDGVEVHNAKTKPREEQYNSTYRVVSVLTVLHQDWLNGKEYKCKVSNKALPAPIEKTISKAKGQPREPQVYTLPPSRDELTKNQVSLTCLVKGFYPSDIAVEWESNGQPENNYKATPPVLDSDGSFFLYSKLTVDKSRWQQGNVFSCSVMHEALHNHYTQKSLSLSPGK

T2: human CD300LB-Fc (human)
T2 construct: hIgG1-Fc fusion; the entry is the whole fusion chain
T2 chain: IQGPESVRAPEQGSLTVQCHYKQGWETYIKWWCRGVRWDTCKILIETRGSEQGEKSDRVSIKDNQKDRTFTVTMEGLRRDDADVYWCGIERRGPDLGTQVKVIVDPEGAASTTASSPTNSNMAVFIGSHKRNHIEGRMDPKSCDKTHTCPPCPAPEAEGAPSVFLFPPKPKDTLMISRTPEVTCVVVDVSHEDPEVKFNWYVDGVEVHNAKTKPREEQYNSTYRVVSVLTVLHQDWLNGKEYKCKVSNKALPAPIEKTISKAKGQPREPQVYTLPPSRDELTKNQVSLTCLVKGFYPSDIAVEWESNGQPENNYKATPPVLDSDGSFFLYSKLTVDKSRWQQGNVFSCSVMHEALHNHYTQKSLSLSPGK

T3: human CD300E-Fc (human)
T3 construct: hIgG1-Fc fusion; the entry is the whole fusion chain
T3 chain: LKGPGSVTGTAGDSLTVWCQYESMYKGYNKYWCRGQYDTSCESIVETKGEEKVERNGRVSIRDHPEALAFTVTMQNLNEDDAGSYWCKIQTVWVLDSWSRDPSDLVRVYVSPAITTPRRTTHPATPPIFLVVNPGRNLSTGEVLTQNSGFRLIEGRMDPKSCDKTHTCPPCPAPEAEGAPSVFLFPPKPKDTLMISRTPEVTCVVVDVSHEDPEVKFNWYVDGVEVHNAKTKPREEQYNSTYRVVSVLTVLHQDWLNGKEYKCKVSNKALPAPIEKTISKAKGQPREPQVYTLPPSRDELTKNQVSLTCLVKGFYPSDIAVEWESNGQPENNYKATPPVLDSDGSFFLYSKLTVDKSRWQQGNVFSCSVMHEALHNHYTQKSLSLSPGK

T4: human CD300A-Fc (human)
T4 construct: hIgG1-Fc fusion; the entry is the whole fusion chain
T4 chain: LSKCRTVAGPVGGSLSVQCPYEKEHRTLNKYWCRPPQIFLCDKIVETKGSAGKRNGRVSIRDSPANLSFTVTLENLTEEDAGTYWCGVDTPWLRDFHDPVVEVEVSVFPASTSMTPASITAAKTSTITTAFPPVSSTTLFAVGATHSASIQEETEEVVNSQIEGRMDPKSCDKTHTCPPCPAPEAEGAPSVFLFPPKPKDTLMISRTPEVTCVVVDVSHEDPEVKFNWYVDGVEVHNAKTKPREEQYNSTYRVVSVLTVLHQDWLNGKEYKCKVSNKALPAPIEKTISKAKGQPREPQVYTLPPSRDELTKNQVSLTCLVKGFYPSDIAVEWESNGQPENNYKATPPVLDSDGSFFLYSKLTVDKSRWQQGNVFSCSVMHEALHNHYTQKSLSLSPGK

B1: anti-CD300LB antibody CD-03 (antibody, V domains shown)
VH: EVQLQQSGPELVKPGASVKISCKASGYTFTDYYINWVRQSHGKSLECIGDINPNNGGTNYNQKFKGKATLTVDRSSNTAYMEFRSLTFDDSALYYCAAEGAYWGQGTLVTVSA
VL: not shown
B2: anti-CD300LB antibody CD-05 (antibody, V domains shown)
VH: QVQLVQSGAEVKKPGASVKVSCKASGYTFSRYYINWVRQAPGQGLEWMGWINPNSGGTNYAQKFQGRVTMTRDTSTSTVYMELSSLRSEDTAVYYCTTDQLRFGKTGPYYGMDVWGQGTTVTVSS
VL: DIQMTQSPSSLSASVGDRVTITCRASQNIGTYLNWYQQKPGKAPKLLIYAASSLQSGVPSRFSGSGSGTDFTLTISSLQPEDFATYYCQQSYSDTLTFGGGTKVEIK
B3: anti-CD300LB antibody CD-01 (antibody, V domains shown)
VH: RVQLQQSGAELVRPGASVTLSCKASGFTFTDFEMHWVKKTPVHGLEWIGAIDPESGNTAYNQKFRGKATLTADKSSSTAYMELRYLTSEDSAVYYCTPLISGADYWGQGTTLTVSS
VL: DVVMTQSPLSLPVSLGDQASISCRSSQSLVHSDGNTYLYWYLQKPGQSPKLLIYKVSNRFSGVPDRFSGSGSGTDFTFKISRVGAEDLGVYFCSQSTHVPWTFGGGTKLEII
B4: anti-CD300LB antibody CD-02 (antibody, V domains shown)
VH: QVQLQQPGAELVRPGSSVKLSCQASGYTFTNYWMHWVRQRPIQGLEWIGNIDPSDSETHYNQKFKDRATLTVDKSSSTAYMQLSSLTSEDSAVYYCARSGVYDDEGGDYWGQGTTLTVSS
VL: ENVLTQSPAIMSASPGEKVTMTCSASSSVSYIHWYQQKSSTSPKLWIYDTSKLASGVPGRFSGSGSGNSYSLTISSMETEDVATYYCFQGSGYPLTFGAGTKLELK

Target: T1, human CD300F-Fc
Assay: SPR (Carterra LSA), antibody immobilised, Fc fusion at 300 or 600 nM
Protocol: (§1) Binding of mouse anti-CD300LB IgG1 antibodies of the present disclosure to human and murine CD300 orthologs were evaluated by surface plasmon resonance (SPR) using a Carterra LSA instrument (Carterra, Salt Lake City, UT). […] A HC200M sensor chip (Carterra) was activated using the single channel flow cell with a 7-minute injection of a 1:1:1 mixture of 100 mM MES pH 5.5, 100 mM sulfo-NHS, 400 mM EDC (all reconstituted in MES pH 5.5; 100 μL of each mixed in vial immediately before running assay). After switching to the multi-channel array flow cell, the antibodies were injected over the activated chip in a 96-spot array for 10 minutes. The remaining unconjugated active groups on the chip were then blocked by injecting 1M Ethanolamine pH 8.5 (Carterra) for 7 minutes using the single channel flow cell. After priming with running buffer (HBS-TE, Carterra) with 0.5 mg/ml BSA (Sigma), the immobilized anti-CD300LB antibodies were tested for their ability to bind human and mouse recombinant CD300LB extracellular domains. Human CD300 family members and mouse CD300A were hIgG1-Fc fusions, while mouse CD300LB, mouse CD300C, mouse CD300D, and mouse CD300E were mouse IgG2a-Fc fusions (R&D Systems). Binding was assessed by injecting each analyte over the entire antibody array using the single channel flow cell. CD300 analytes were diluted to 300 nM or 600 nM in running buffer and injected in series without regeneration. Two or three buffer blanks were run between each mouse or human ortholog, respectively. Data were processed and analyzed using NextGenKIT high-throughput kinetics analysis software (Carterra).
(§2) Results of anti-CD300LB antibody binding to human CD300 family members is provided below in Table 7.

| SPR binding (control subtracted) | Binder |
| --- | --- |
| 0.42 | B1 |
| 0.045 | B2 |
| 0.075 | B3 |
| 0.87 | B4 |

Target: T2, human CD300LB-Fc
Assay: as above
Protocol: as §1, §2

| SPR binding (control subtracted) | Binder |
| --- | --- |
| 43 | B1 |
| 51 | B2 |
| 3.71 | B3 |
| 21 | B4 |

Target: T3, human CD300E-Fc
Assay: as above
Protocol: as §1, §2

| SPR binding (control subtracted) | Binder |
| --- | --- |
| 0.18 | B1 |
| 0.195 | B2 |
| -0.105 | B3 |
| 0.62 | B4 |

Target: T4, human CD300A-Fc
Assay: as above
Protocol: as §1, §2

| SPR binding (control subtracted) | Binder |
| --- | --- |
| 0.095 | B1 |
| 0.24 | B2 |
| 0.175 | B3 |
| 0.735 | B4 |

Target: T4, human CD300A-Fc
Assay: SPR (Carterra LSA), antibody immobilised
Procedure, shortened: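 Mouse anti-CD300LB IgG1 antibodies were amine-coupled in a 96-spot array on an HC200M chip; Fc-fused CD300 ectodomains (human on hIgG1-Fc) flowed over as analytes at 300 nM or 600 nM in HBS-TE with 0.5 mg/ml BSA, injected in series without regeneration, with kinetics fitted by high-throughput analysis.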

| binding result | Binder |
| --- | --- |
| no binding (tested: 300 nM or 600 nM) | B1 |
| no binding (tested: 300 nM or 600 nM) | B2 |
| no binding (tested: 300 nM or 600 nM) | B3 |
| no binding (tested: 300 nM or 600 nM) | B4 |
